From doi:10.1101/2023.12.27.573415 (bioRxiv, 2023)

Tests used:
FKBP51 = target: T1, FKBP51 (UniProt Q13451 1-457); experiment: NMR titration
T1 sequence: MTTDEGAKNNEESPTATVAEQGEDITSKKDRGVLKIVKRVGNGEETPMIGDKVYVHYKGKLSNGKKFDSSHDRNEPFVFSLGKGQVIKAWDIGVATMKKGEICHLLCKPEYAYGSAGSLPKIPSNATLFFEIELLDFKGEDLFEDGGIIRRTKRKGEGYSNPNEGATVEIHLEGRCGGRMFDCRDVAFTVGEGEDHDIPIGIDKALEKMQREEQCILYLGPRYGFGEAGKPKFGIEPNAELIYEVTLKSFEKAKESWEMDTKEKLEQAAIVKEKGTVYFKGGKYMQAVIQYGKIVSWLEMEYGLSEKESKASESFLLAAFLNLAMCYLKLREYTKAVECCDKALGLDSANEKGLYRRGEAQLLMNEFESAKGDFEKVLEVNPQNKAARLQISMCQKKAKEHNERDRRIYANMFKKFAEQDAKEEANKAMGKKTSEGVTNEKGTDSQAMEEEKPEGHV

[1] = target: 441-residue human 2N4R tau (human, UniProt P10636-8 1-441); experiment: NMR titration

Row | Binder | binding result (FKBP51) | binding result [1]
1 | truncated p23 (1-119) (domain or fragment) MQPASAKWYDRRDYVFIEFCVEDSKDVNVNFEKSKLTFSCLGGSDNFKHLNEIDLFHCIDPNDSKHKRTDRSILCCLRKGESGQSWPRLTKERAKLNWLSVDFNNWKDWEDDSDEDMSN | binds | –
2 | p23 (human, wild type) (natural protein) MQPASAKWYDRRDYVFIEFCVEDSKDVNVNFEKSKLTFSCLGGSDNFKHLNEIDLFHCIDPNDSKHKRTDRSILCCLRKGESGQSWPRLTKERAKLNWLSVDFNNWKDWEDDSDEDMSNFDRFSEMMNNMGGDEDVDLPEVDGADDDSQDSDDEKMPDLE | – | binds
